The source of these data is patent US20230211003A1, “CONJUGATE COMPOUNDS FOR PREVENTING AND/OR TREATING HBV AND/OR HDV INFECTIONS, LIVER DISEASES ANDFOR TARGETING NTCP” (priority 2019, published 2023).

The test system of one experiment is HDV. Kind of experiment: microbe, parasite or virus in culture. In kind it is cell-based, hepatitis D virus (HDV). From the text: FIG. 3 HBV/HDV infection assay.
Tested were conjugate compounds comprising a truncated variant of Myrcludex B (amino acids 2-21) conjugated with bile acids cholic acid (CA) and ursodeoxy cholic acid (UDCA). They were compared with a control peptide not containing a bile acid moiety, namely HBVpreS/(-11)-21^myr (Genotype B) and the two bile acids CA and UDCA alone.
FIG. 4 HBV/HDV infection assay.
Tested were conjugate compounds comprising a truncated variant of Myrcludex B (amino acids 2-21) conjugated with cholic acid (CA) and a cyclic peptide (also comprising amino acids 2-21) conjugated with ursodeoxy cholic acid (UDCA). They were compared with a control peptide not containing a bile acid moiety, namely HBVpreS/2-21^myr (Genotype B).
FIG. 5 HBV/HDV infection assay of compounds conjugated with bile acid monomers and dimers.
Tested were three compounds: two conjugated with ursodeoxy cholic acid (UDCA) and one with a dimer of ursodeoxy cholic acid (UDCA)2, wherein two comprise amino acids 2-21 of Myrcludex B in a linear form and one as cyclic peptide.
FIG. 7 Infection inhibition of bile acid conjugates with linear peptide sequences Reduction of HDV infection by various bile acid conjugates, control peptides, ursodeoxycholic acid and cholic acid in Huh7-hNTCP cells. The cells were pretreated with the substances for 30 minutes and then co-incubated with the substances and HDV overnight. An in-cell ELISA was carried out five days after infection (n=3).
Reduction of HDV infection by various bile acid conjugates and control peptides in Huh7-hNTCP cells. The cells were pretreated with the substances for 30 minutes and then co-incubated with the substances and HDV overnight. An in-cell ELISA was carried out five days after infection (n=3).
Reduction of HDV infection by a bile acid dimer peptide conjugate bile acid conjugates as compared to the monomeric bile acid conjugates and the control peptides in Huh7-hNTCP cells. The cells were pretreated with the substances for 30 minutes and then coincubated with the substances and HDV overnight. An in-cell ELISA was carried out five days after infection (n=3).
Example 3 HDAg In-Cell ELISA (Huh7-hNTCP
1st Antibody Mouse or rabbit anti HDAg (FD3A7) 1:3000
2nd Antibody: Goat-anti-mouse or goat-anti-rabbit peroxidase conjugated 1:5000
Grow and infect cells in white 96-well plates.
1) Fix cells with 50 μl 4% PFA at RT for 30 min
5) Incubate with 100 μl primary antibody (1:3000) diluted in blocking buffer at RT with shaking for 1 h
9) Incubate with 100 μl 2nd Antibody 1:5000 in blocking buffer at RT with shaking for 1 h.
11) Add 50 μl luminescence substrate (mix according to manufacturer's protocol) and measure at plate reader directly after pipetting.
(Enhanced luciferase protocol, 0.1 s measurement)

Experiment [1] concerns the target human sodium taurocholate co-transporting polypeptide (NTCP/SLC10A1) (human) (UniProt Q14973). Kind of experiment: cell-based or functional assay.
Experiment [2] concerns the target T1, human sodium taurocholate co-transporting polypeptide (NTCP/SLC10A1) (human, UniProt Q14973 1-349).
T1 sequence: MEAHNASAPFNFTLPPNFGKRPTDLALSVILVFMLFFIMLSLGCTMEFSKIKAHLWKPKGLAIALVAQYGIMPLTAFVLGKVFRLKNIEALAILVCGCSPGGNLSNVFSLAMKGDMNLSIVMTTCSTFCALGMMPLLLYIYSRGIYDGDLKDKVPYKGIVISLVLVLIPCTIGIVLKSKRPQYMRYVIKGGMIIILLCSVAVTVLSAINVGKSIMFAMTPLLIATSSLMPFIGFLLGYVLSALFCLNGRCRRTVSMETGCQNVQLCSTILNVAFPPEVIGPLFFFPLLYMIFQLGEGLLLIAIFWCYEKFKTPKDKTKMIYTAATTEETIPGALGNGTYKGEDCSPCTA
Kind of experiment: cell-based or functional assay.

Setting [3] is: experiments of FIGS. 7 and 9, Huh7-hNTCP cells pretreated 30 minutes, co-incubated with HDV overnight, in-cell ELISA five days after infection (n=3), read-out: IC 50.
Where [4] appears, read: HDV infection, Huh7-hNTCP cells, in-cell ELISA, FIGS. 3, 4 and 5 (genotype B sequence), read-out: IC50.

Like-named read-outs stand apart in the source and are kept apart here. Square brackets hold non-standard residues; d marks the D form. Ends that are not written are not given here. Peptide text beside a SMILES is read from it. * marks the point of attachment. Ursodeoxycholyl = C[C@H](CCC(=O)*)[C@H]1CC[C@H]2[C@@H]3[C@@H](O)C[C@@H]4C[C@H](O)CC[C@]4(C)[C@H]3CC[C@]12C; Myristoyl = CCCCCCCCCCCCCC(=O)*

Take `C[C@H](CCC(=O)O)[C@H]1CC[C@H]2[C@@H]3[C@H](O)C[C@@H]4C[C@H](O)CC[C@]4(C)[C@H]3C[C@H](O)[C@]12C` [CA, cholic acid]: the IC50 in the experiment with HDV (Hepatitis delta virus) was found to be 115000 nM.
Regarding `CCCCCCCCCCCCCC(=O)NCC(=O)N[C@H](C(=O)N[C@@H](CC(N)=O)C(=O)N[C@@H](CC(C)C)C(=O)N[C@@H](CO)C(=O)N[C@H](C(=O)N1CCC[C@H]1C(=O)N[C@@H](CC(N)=O)C(=O)N1CCC[C@H]1C(=O)N[C@@H](CC(C)C)C(=O)NCC(=O)N[C@@H](Cc1ccccc1)C(=O)N[C@@H](Cc1ccccc1)C(=O)N1CCC[C@H]1C(=O)N[C@@H](CC(=O)O)C(=O)N[C@@H](Cc1c[nH]cn1)C(=O)N[C@@H](CCC(N)=O)C(=O)N[C@@H](CC(C)C)C(=O)N[C@@H](CC(=O)O)C(=O)N1CCC[C@H]1C(=O)N[C@H](Cc1ccc(O)cc1)C(=O)N[C@@H](CCCCNC(=O)CC[C@@H](C)[C@H]1CC[C@H]2[C@@H]3[C@@H](O)C[C@@H]4C[C@H](O)CC[C@]4(C)[C@H]3CC[C@]12C)C(N)=O)C(C)C)[C@@H](C)O` [HBVpreS/2-21myr-UDCA] (Myristoyl-GTNLSVPNPLGFFPDHQLDP[dY]K(Ursodeoxycholyl)-NH2), the IC50 in the experiment with HDV (setting [3]) was 9.2 nM.
With `CCCCCCCCCCCCCC(=O)NCC(=O)N[C@H](C(=O)N[C@@H](CC(N)=O)C(=O)N[C@@H](CC(C)C)C(=O)N[C@@H](CO)C(=O)N[C@H](C(=O)N1CCC[C@H]1C(=O)N[C@@H](CC(N)=O)C(=O)N1CCC[C@H]1C(=O)N[C@@H](CC(C)C)C(=O)NCC(=O)N[C@@H](Cc1ccccc1)C(=O)N[C@@H](Cc1ccccc1)C(=O)N1CCC[C@H]1C(=O)N[C@@H](CC(=O)O)C(=O)N[C@@H](Cc1c[nH]cn1)C(=O)N[C@@H](CCC(N)=O)C(=O)N[C@@H](CC(C)C)C(=O)N[C@@H](CC(=O)O)C(=O)N1CCC[C@H]1C(N)=O)C(C)C)[C@@H](C)O` [HBVpreS/2-21myr] (Myristoyl-GTNLSVPNPLGFFPDHQLDP-NH2; C-terminus assumed), the IC50 in the experiment on HDV (setting [4]) turned out to be 62.8 nM.
On to `C[C@H](CCC(=O)O)[C@H]1CC[C@H]2[C@@H]3[C@@H](O)C[C@@H]4C[C@H](O)CC[C@]4(C)[C@H]3CC[C@]12C` [UDCA, ursodeoxycholic acid], for which the IC50 in the experiment with HDV (setting [4]) and with HDV (setting [3]) was 79000 nM each time.
HBVpreS/2-21myr (consensus) (peptide) came in with an IC 50, inhibition of HDV infection of Huh7-hNTCP cells (in-cell ELISA, FIGS. 7 and 9) in experiment [1] of 70.3 nM.
In experiment [1], “HBVpreS/2-21myr-(UDCA)2 (genotype B) (peptide)” yielded an IC50, inhibition of HDV infection of Huh7-hNTCP cells (HDAg in-cell ELISA) of 3.55 nM; an IC 50, inhibition of HDV infection of Huh7-hNTCP cells (in-cell ELISA, FIGS. 7 and 9) of 12.7 nM.
With “HBVpreS/2-21myr-CA (genotype B) (peptide)”, in experiment [1], the IC50, inhibition of HDV infection of Huh7-hNTCP cells (HDAg in-cell ELISA) came out at 7.27 nM; the IC 50, inhibition of HDV infection of Huh7-hNTCP cells (in-cell ELISA, FIGS. 7 and 9) is 12.5 nM.
In experiment [1], “HBVpreS/2-21myr-LCA (genotype B) (peptide)” came in with an IC 50, inhibition of HDV infection of Huh7-hNTCP cells (in-cell ELISA, FIGS. 7 and 9) of 7.5 nM.
In experiment [1], “HBVpreS/2-21myr-UDCA (genotype B) (peptide)” displayed an IC50, inhibition of HDV infection of Huh7-hNTCP cells (HDAg in-cell ELISA) of 8.45 nM; an IC 50, inhibition of HDV infection of Huh7-hNTCP cells (in-cell ELISA, FIGS. 7 and 9) of 9.2 nM.
For MyrB-UDCA (peptide), the IC 50, inhibition of HDV infection of Huh7-hNTCP cells (in-cell ELISA, FIGS. 7 and 9) in experiment [1] was 1.5 nM.
Consider Myristoyl-GTNLSVPNPLGFFPDHQLDP [HBVpreS/2-21myr (Genotype B)], for which the “IC50, inhibition of HDV infection of Huh7-hNTCP cells (HDAg in-cell ELISA)” value in experiment [2] was 62.8 nM.
